Values of other authors, collected in article PMC11641302.

What was measured:
Nterm1 [1] = target: Nterm1 (UniProt position 2, ----MPLLKFD)
Nterm1 [2] = target: Nterm1 (UniProt position 2, ----MPVYMVY)

Substance | pKa (Nterm1 [1]) | pKa (Nterm1 [2])
malonate semialdehyde decarboxylase (MSAD) (Pseudomonas pavonaceae) | ~9.2 | –
cis-3-chloroacrylic acid dehalogenase (cis-CaaD) (Coryneform bacterium) | – | ~9.3
